Reference: patent US6919086B1, “Graminae pollen allergen mutants for specific immunotherapy, and production and use of the same” (Merck Patent Gesellschaft mit, priority 1997, dated 2005)
Read-outs that look alike come from different tables or passages of the source.

Key:
[1] = tested on: IgE antibodies of allergic patients; experiment: EAST inhibition test (IgE reactivity / allergenicity); assay type: binding, human; settings: for IC50: read-out: Inhibition value 50% (concentration of the inhibitor at 50% inhibition); for Allergenic potency (Prel) 25%: relative to native Phl p 5b at 25% inhibition; for Allergenic potency (Prel) 50%: relative to native Phl p 5b at 50% inhibition
Experimental: The effects of the induced mutations on the allergenicity, i.e. the ability to bind to the IgE antibodies of allergic patients, of the modified recombinant allergens is determined qualitatively and quantitatively by means of the EAST inhibition test. […] The extent of the immunochemical relatedness (cross reactivity) can also be quantified. This EAST inhibition test only takes the reaction with IgE antibodies into account.
The binding of the allergens by the IgE antibodies is the basic prerequisite for the allergen-specific activation of the effector cells (mast cells, basophils, inter alia) in type I allergy. The allergen-specific inhibition of the enzyme/allergen sorbent test (EAST) is the best means for qualitatively and quantitatively recording the binding of the allergens to IgE anti-bodies. The EAST inhibition test is carried out as follows. Microtitre plates are coated with allergen (natural or recombinant Ph1 p 5 or Ph1 p 5b) (1 μg/ml). After the unbound allergen molecules have been removed by washing, non-specific plastic binding sites are blocked with bovine serum albumin (0.5%). […] from allergic patients, as a representative pool of 10-30 donors or as an individual serum, is incubated, in a suitable dilution, with the allergen-coated microtritre plates. The bound allergen-specific IgE antibodies are quantified using enzyme-coupled anti-IgE antibodies (e.g. alk. phosphatase-a-IgE antibodies). This binding is inhibited by soluble allergen or the substance to be tested (allergen mutants) in dependence on the concentration. The inhibition curve obtained with the purified natural allergen Ph1 p 5b is used as the reference.

[2] = tested on: Phl p 5b-reactive T cell clones (TCCs) from allergic patients; experiment: Proliferative reaction of Phl p 5b-reactive T cell clones ([3H]-thymidine incorporation); assay type: cell-based, human; settings: final concentration 0.3 μM
Experimental: (§1) 40 ml of heparinized blood were obtained from each patient. Peripheral mononuclear cells (PBMC) were then isolated from this blood sample by means of the customary method using density gradient centrifugation. Analogous cell isolations were carried out at a later stage when it was necessary to obtain irradiated autologous antigen-presenting cells (APC) for characterizing the TCL and TCC further. After the PBMC had been counted, TCL which reacted to group 5 allergens in vitro were established as follows and as has already been described in detail elsewhere (Lit. 1): in each well of 24-well microculture plates, from 1.5 to 2.0×10^6 PBMC in 1 ml of culture medium (UltraCulture) were stimulated for 7 days in the added presence of natural Phl p5 allergens (in each case 10 μg/well) which had been purified by immunoaffinity chromatography. A total of from 8 to 10 of these cultures were set up. The isolation of Phl p5 by means of immunoaffinity chromatography has been described in detail (Lit. 2). At the end of the 7 days of culture, IL-2 (from 10 to 20 IU/well) was added to the cell cultures for a further 5 to 7 days. All the individual cultures were then pooled and the T cell blasts were enriched by means of density gradient centrifugation; the TCL which were obtained were then tested in a specific lymphocyte proliferation test (see Lit. 1 as well). For this, 2×10^4/ml TCL blasts were in each case cultured with 5×10^4/ml irradiated autologous APCs in triplicate samples in 96-well microculture plates. 10-20 μg of Phl p5 allergen were added as the specific antigen stimulus. After 56 hours of incubation, ^3H-labelled thymidine (1 μCi/well) was pipetted into the microcultures. After a further 16 hours, the radioactivity which had been incorporated into the proliferating T cell blasts was measured in a beta counter (Matrix 96). The results were calculated, as the arithmetic mean of the multiple samples, in counts per minute (cpm). The criterion for the quality of the TCL was the stimulation index, which was obtained by relating the cpm values with Phl p5 addition to those without Phl p5 addition.
After a TCL had been cloned (see below), the specificity of the isolated TCCs were determined as has just been described. Stimulation indices of at least 5 were rated as being positive for the TCCs. The determination of T cell epitopes for defining the T cell-reactive regions on group 5 allergens was also carried out using specific proliferation tests, with 1-2 μg of synthesized dodecapeptide/ml being used for this purpose in each case (see below).
The reactivity of the recombinant Ph1 p 5b mutants was tested on established T cell clones (TCCs) of known specificity. The TCCs derive from patients who are allergic to grass pollen (see Ex. 1) and are directed against the T cell-reactive regions A (FIG. 7), B (FIG. 8) and C (FIG. 9). The T cell reactivity was measured by stimulating the clones to proliferate.

[3] = tested on: Phl p 5b-reactive T cell lines (TCLs) from allergic patients; experiment: Proliferative reaction of Phl p 5b-reactive oligoclonal T cell lines ([3H]-thymidine incorporation); assay type: cell-based, human; settings: secondary activator 0.3 μM
Experimental: In the second phase, oligoclonal T cell lines, which have been established by repeated stimulation with the relevant allergens, are employed for the testing. Once again, only those modified recombinant allergens which at least give rise to a stimulation index (SI) of 50% of the SI of the wild type are taken into consideration.
as §1
The oligoclonal T cell lines (TCLs) from 8 patients who were allergic to grass pollen (see Ex. 1) were established by repeated activation with natural Ph1 p 5b (a+b) or recombinant rPh1 p 5b or 5a+5b.
The proliferative reaction of these TCLs was tested using the rPh1 p 5b mutants (FIG. 10).

[4] = allergic patient serum pool Bor 18/100
[5] = allergic patient serum pool We 6/97
[6] = individual allergic patient serum II/3
[7] = individual allergic patient serum II/12
[8] = individual allergic patient serum II/17

Molecule | Inhibition value 25% (concentration of the inhibitor at 25% inhibition) [1, 4] [mol/L] | IC50 [1, 4] [nM] | Inhibition value 25% (concentration of the inhibitor at 25% inhibition) [1, 5] [mol/L] | IC50 [1, 5] [nM] | Inhibition value 25% (concentration of the inhibitor at 25% inhibition) [1, 6] [mol/L] | IC50 [1, 6] [nM] | Inhibition value 25% (concentration of the inhibitor at 25% inhibition) [1, 7] [mol/L] | IC50 [1, 7] [nM] | Inhibition value 25% (concentration of the inhibitor at 25% inhibition) [1, 8] [mol/L] | IC50 [1, 8] [nM] | Allergenic potency (Prel) 25% ([1]; individual serum II/3) | Allergenic potency (Prel) 25% ([1]; individual serum II/12) | Allergenic potency (Prel) 25% ([1]; individual serum II/17) | Allergenic potency (Prel) 25% ([1]; serum pool Bor 18/100) | Allergenic potency (Prel) 25% ([1]; serum pool We 6/97) | Allergenic potency (Prel) 50% ([1]; individual serum II/3) | Allergenic potency (Prel) 50% ([1]; individual serum II/12) | Allergenic potency (Prel) 50% ([1]; individual serum II/17) | Allergenic potency (Prel) 50% ([1]; serum pool Bor 18/100) | Allergenic potency (Prel) 50% ([1]; serum pool We 6/97) | other results
r Phl p 5b: recombinant wild type Phl p 5b, 265 amino acids, SEQ ID NO 87 (protein) ADAGYAPATPAAAGAAAGKATTEEQKLIEDINVGFKAAVAAAASVPAADKFKTFEAAFTSSSKAAAAKAPGLVPKLDAAYSVAYKAAVGATPEAKFDSFVASLTEALRVIAGALEVHAVKPVTEEPGMAKIPAGELQIIDKIDAAFKVAATAAATAPADDKFTVFEAAFNKAIKESTGGAYDTYKCIPSLEAAVKQAYAATVAAAPQVKYAVFEAALTKAITAMSEVQKVSQPATGAATVAAGAATTAAGAASGAATVAAGGYKV | 2e-10 | 5 | 3e-10 | 1400 | 5.6e-10 | 14 | 8.7e-10 | 73 | 2.1e-10 | 4.7 | 0.9030 | 0.597 | 1.045 | 1.709 | 1.697 | 0.4190 | 0.093 | 0.5450 | 0.8410 | 0.4400 | EAST inhibition curve / inhibitory effect (in words) ([1]; serum pool Bor 18/100 (20 donors), FIG. 1): binding curves which are similar to that obtained with natural Ph1 p 5b; Incorporation of [3H]-thymidine into TCC CB 2 (stimulation index class) ([2]; T cell-reactive region A): +++ (>10 (+++)); Incorporation of [3H]-thymidine into TCC CB 14 (stimulation index class) ([2]; T cell-reactive region A): +++ (>10 (+++)); Incorporation of [3H]-thymidine into TCC JR 13 (stimulation index class) ([2]; T cell-reactive region A): +++ (>10 (+++)); Incorporation of [3H]-thymidine into TCC JR 15 (stimulation index class) ([2]; T cell-reactive region A): +++ (>10 (+++)); Incorporation of [3H]-thymidine into TCC DW8 (stimulation index class) ([2]; T cell-reactive region B): + (1-2 (+)); Incorporation of [3H]-thymidine into TCC UZH2 (stimulation index class) ([2]; T cell-reactive region B): +++ (>10 (+++)); Incorporation of [3H]-thymidine, stimulation index SI, 1st exp. ([2]; T cell-reactive region C): 11.0; Incorporation of [3H]-thymidine, stimulation index SI, 2nd exp. ([2]; T cell-reactive region C): 7.0; Incorporation of [3H]-thymidine, stimulation index SI, 3rd exp. ([2]; T cell-reactive region C): 5.5; Incorporation of [3H]-thymidine, stimulation index class (last column, no head) ([2]; T cell-reactive region C): ++ (5-10 (++)); Incorporation of [3H]-thymidine into TCL 1 Wöl (stimulation index class) ([3]; primary stimulator n Phl p 5): + (1-2 (+)); Incorporation of [3H]-thymidine into TCL 2 Eic (stimulation index class) ([3]; primary stimulator n Phl p 5): + (1-2 (+)); Incorporation of [3H]-thymidine into TCL 3 Fre (stimulation index class) ([3]; primary stimulator n Phl p 5): + (1-2 (+)); Incorporation of [3H]-thymidine into TCL 4 Mer (stimulation index class) ([3]; primary stimulator n Phl p 5): + (1-2 (+)); Incorporation of [3H]-thymidine into TCL 5 17.4 (stimulation index class) ([3]; primary stimulator r Phl p 5): + (1-2 (+)); Incorporation of [3H]-thymidine into TCL 6 Mah (stimulation index class) ([3]; primary stimulator r Phl p 5a, r Phl p 5b): +++ (>10 (+++)); Incorporation of [3H]-thymidine into TCL 7 19.2 (stimulation index class) ([3]; primary stimulator r Phl p 5b): +++ (>10 (+++)); Incorporation of [3H]-thymidine into TCL 8 20.1 (stimulation index class) ([3]; primary stimulator r Phl p 5b): +++ (>10 (+++))
n Phl p 5b: purified natural allergen Phl p 5b of timothy grass (Phleum pratense), reference of the EAST inhibition (protein) ADAGYAPATPAAAGAAAGKATTEEQKLIEDINVGFKAAVAAAASVPAADKFKTFEAAFTSSSKAAAAKAPGLVPKLDAAYSVAYKAAVGATPEAKFDSFVASLTEALRVIAGALEVHAVKPVTEEPGMAKIPAGELQIIDKIDAAFKVAATAAATAPADDKFTVFEAAFNKAIKESTGGAYDTYKCIPSLEAAVKQAYAATVAAAPQVKYAVFEAALTKAITAMSEVQKVSQPATGAATVAAGAATTAAGAASGAATVAAGGYKV | 3.3e-10 | 4.2 | 5.1e-10 | 6.1 | 5.1e-10 | 5.9 | 5.2e-10 | 6.8 | 2.2e-10 | 2.6 | 1.000 | 1.000 | 1.000 | 1.000 | 1.000 | 1.000 | 1.000 | 1.000 | 1.000 | 1.000 | –
